For 34 sequences, protease stability score results are on record in the NTF2 design screens of Basanta et al. (2020).

A short description of this series: protease stability score; higher = more stable; yeast display proteolysis, trypsin and chymotrypsin.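 Also: relative to predicted unfolded state with 0 unfolded-like and 1 meaning tenfold more protease.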
For “TEEDEMWHKFMEHYVHNFLTGDPNKAKKLADPDTRFEIDGKDVVGMERIIDEFLKVPGLRSEIKRVTFIGDKIHIDGRMIINGVETKVDIDIHVVNGVIKSIHIRVR”, the protease stability score was 0.74.
In turn, “TEEDEMWKELSDILLEIHETGDWDRLIRLVDPDVKVNIDGKDLHGWQEVAHTIRVLLEQFKGVKIIIRHVEIQGDKVHIHMEIRQGDKHYEVHLHYIVVNGKIKQMHMHRR” yielded a protease stability score of 1.
The value for “TEEDERAKHWAERWIRLLETGDFEILTELLDPNVRVEIDINGKKIELHGMETISEDLRRRLEELGFKHFHIRDMKSQGDKSRVRGEVEVNGKPVDVHIVLNIVDGKLKTFRFENK” was 1.35; that for “TEEDEVTEELARNWVKYFLTGDEEQLHRLMDPNARFHTIVGDKHVHRHGRESIVHWIDHVLRHIRIEEVHIRRVHIWNGRVDINNEEIGRVGDKHYRTEVRIHLRIVDGVIRSVDIDIE” was 0.693.
“TEEDHELRLAHEELHRDLDTGDWESFMRYMDPRARVHYNGREFIGREFAVKFYLDVLNKYKGLTFRIHDIRIFDGVLFVRVKFHFDGQWLHSSEVALKVNGQWHNHHVSFI”: the protease stability score is 0.611.
“TEEDHFLKRELEKYIHSILTGDEDSTQHMIDPHARVFWNGVELHGRDAITKIMREWRIRHVRIERFEVQGDKIESHSISHMEINGKKHDHIFRITSEKYDGRWVIRELSIE” gave a protease stability score of 1.51.
The value for “TEEDHHAKRMTKMWEEALITGNEHLVKEMFDPHARYRQGEWDLVGREEISKFVLTNLEEWRIDHHHTHSLHLQGEKSHVRSRVLGIFDGKRFETHLQVDVEVINGKIHDLTIRIT” was 0.678.
The sequence “TEEDHKAFTMVELFLNALTTGDERTLEKLVDPNVRVNIDGRDVHGMSILIRWREHLRFEFREVNNKRSELQGEKLHVDSEVDRHIRIGDKEDREHIRIHFHLLKINGRWFIEEVRML” registered a protease stability score of 1.36.
Sequence “TEEDKLIEKAWRLFLHILHTGDWEEFHRLADPHMREDVNGVNLIGREDVLRHFIRLIEELGVKHSHVKDFRIHIFNGVIHTIMDVRTEYGDKSVDVRIHLEIEKIDGRWFLRTARIRLT” displayed a protease stability score of 1.51.
Sequence “TEEDKMEHDYAKLFMFLERTGDETLFEKLVDPDVKHIFDGVHLHGREEVASFLHHLLREWRIHHIDLKRVDVVNGKIEIDGRRNGDFDGKRYETHFTIHVFLYDGRIKWFEIRIR” had a protease stability score of 1.46.
As for “TEEDRETEKFLRILQEVHRTGDWRRFDEFLDPNVRIHIGDKEYHGREEFTRFFKEMGIDHHEVKHYRLVDGQLDLDVTERFNGVTVKTKLITHKFDGRWLITEIRVK”, the figure is 1.19; as for “TEEDRFAHEFVRKWIENFLTGNEEKLHELADPNMKIDVGDKHLHGMEEWTRFLRDLGWRTEIRLRDIEVQGNKAFIRGEVHISINGRTDKTETRIILHVVNGRLKEVYVHHQ”, 1.53; as for “TEEDRLVDKITKELLTALTTGDEEIFLELLDPNARVEYNGKEMHGREFYRKIFEEEEKKIKNLRVEIHDYDAQGDKIHVDQRRHFNGRTYDYRLHYLVVNGKVKSVFVRIL”, 0.831.
For the sequence “TEEEDEASRLMEEFLKHHETGDWEELKKMADPDARYHETVNGKRIERHGRDDLITWLRKFLEKFKNMRLHIDEMRLIGNKNILHGTLRIGDKDIESRIILIIIDGRIKEIEIIIK”, the protease stability score came to 1.
The value for “TEEEDLIRRQIHELRETLQTGDEHLLNWLLDPHARMEIDGQEVWGREEIAKFLHRFKNITVLFNDMIVQGDKVDIDGQIEFNGRRRRARLISDKVDGQWIDHDIIII” was 1.3; that for “TEEEDRLREIAELIHKFLTTGDWEKIFRMLDPHVRVEIHVNGRDIIIHGWKNVHRLLEYELEELRFHQSDVHELRVQGDKAHSITEWDGVIDGRRQNLHVNVHFVTVDGRIRSIKFEFR” was 1.57.
Consider “TEEEEAAKRVFRLLLENAKTGDEDHLRELIDPNVRIHVDGRTLIGMEQFKRFWSEMRVHHWDQKSVDFVNGRVHSDTIINSHVDGQTIHIDVRIIITKIDGQWVVESFSVS”, for which the protease stability score worked out at 1.17.
The value for “TEEEEAKHLAQRIIEEDLRTGDWSRELRQIDPDVKTRVGDKTFHGMSALHYLLKQIDHPKSFTTHHIEVQGDKIKIDGELEGNINGVRTKIHTIFIVRKVNGRWLVETIIFE” was 1.53.
As for “TEEEEDARRATEELVRIINTGDEDRWERLMDPDVRVEVGDKEIHGRETLSEIFKFKHKHLRIKMDIRDMRLIDGKVWVDIVIDVEFDGRRHIHKTTIVLIKVNGRWRLDEVRLH”, the figure is 1.77.
The value for “TEEEEDLKEVLRVELETWHTGNWDEMRRLLDPHARLIFDGQTFHGRELAVKFFQELLTRFDVLHIIPQSVSVYNGRVEIHEEMHEVVDGQTIRRTYHVRSSKINGRWSVEVLVIQ” was 0.443; that for “TEEEEEARRALEEWIHNLMTGDEKRELELADPHVRILIDINGREIHMHGWEQFERWVHEEMRRLGLDRFEVRLEHIEIQGDKSVLDGRINYNGVDERNNIILVVVDGKLRQIRIHVI” was 1.95; that for “TEEEEEFHEILEHFLTQLHTGDWEEIIKNLDPNVLFHFNGVLFHGREEVSRFLVEWFDKIKGMRIHIHELRIVGDKATIDTRLDVGEKTHRVIIHIRKINGRWLITEIRIE” was 2.02.
“TEEEEEFHRMFELEVRAWRTGDEETIRRLFDPHARIDFNGRDVIGRDEFIKRFQELGVEVHDLKIHNFRIVGDKVHWDIRLDGTFNGKRTKLEIHLYAEKYDGQWFNKTEYYI”: the protease stability score amounted to 1.36.
The value for “TEEEEEFKRTSHEIFYALHTGNWEILEKMFDPHVRTHINGKDVHGREEATRVMELWIEELGVKHIHIKSEHHDIQGEFVRIHFHIISRVGDKFIEIEIEMEIRKINGRWRFTSIRLDRR” was 1.42.
The value for “TEEEEELHKILERMIKHLVTGDEEAILKLADPDVRVHRIIDGRELDIVGRENLRHWLHELLRQLGVDHIDVKSVTLQGDKIHMTGTMKWNGKTEETRIIFEVVNGRLKRMEFHEI” was 0.982; that for “TEEEEELRRIEHLTIELIETGDEDTLKRLADPNARLNIEFNGVHIHSHGREEMARLLHEWYRTMGIKHEELKRSEIQGDKVILHTELRIGDKTVSTIIITLVINGRIKWIRIIIK” was 1.36.
As for “TEEEEEMRELTELWLNILHTGDEDRFRELADPRVRLHINGRHNHGREIFMEFFDRSLKILGADHRTIHRIRFIGDKIDIKGREYINGQETRATLHVIIVNGRIKFEEWRFD”, the figure is 0.989; as for “TEEEEEMRKMSELYIRAILTGDEDEYTKLADPDDRVNFNGRKLVGRKEVKEWLRKLRDKFKNITLHHFEIKELRVYNGRIRMIAESEVNIGDKVWRFHLHFIFEKFDGVWVLTEESTE”, 1.64; as for “TEEEEENMDFLHKWLERTRTGDEHEIKKLADPDVRLRVGNKEIHGRDLFARWAKEIRITHLDEKRFHIYNGKVDFDGINHVTVNGVDETRKVIFHLVKVDGVWRFKEVDIR”, 0.98.
“TEEEEESKKAVEDLLHTIKTGNEEHMDRLLDPNVRLHVGDKDFVGREAFRHFWHEEWERFKNIKVELEDVKIFNGRVQIVLRIDIGDKHHRLHVYADKINGRWFIKRVEIE” gave a protease stability score of 2.
For “TEEEEHALTLMKEWVHNHETGNEDHLSHLMDPNYRWVQGDWHLHGMEDFSRELNKTLDKMGMTEHLRLKDFKVQGNFVEVIGTQHLHINGRTIKIDSTLKLNVINGRIHEVRYTLH”, the protease stability score stood at 0.77.
With “TEEEEHASRIARLWLDMLLTGDWHTLDRLLDPHVRLEVNGQERIGREQIIKFEEERKRQLRINDVRTRHIHSQGDKLHIVTEADGEIDGKRTNVDTRIQIKVVDGVVEEVKFDIK”, the protease stability score is 0.736.
“TEEEEHIRRLAEELMHNIRTGDEDTLVDLFDPDTKLHVHQGDKEIVFHGMEEIFDWWEKLLSEIRIEIRIRSIKYIGDKAHVHTEVIWRFNGREHRIESEIEFVLINGKVERIHISFI”: the protease stability score stood at 2.27.
Turning to “TEEEEHLHTLASKDLKAFMTGDWETHKKLADPHVRFELVVGEWRLILHGRERFIEFLIEVLEKMGVDHFHLQHVEVIGNFVRLNIKIEVGDKTHDTRIDLEYINGVIHDVRVEFK”, the protease stability score is 2.02.
